In PMC3461476, “Functional expression of a penicillin acylase from the extreme thermophile Thermus thermophilus HB27 in Escherichia coli” (Microbial Cell Factories, 2012):

B1: TthPAC (Thermus thermophilus HB27; DEL247-255) (protein)
chain: LYLRASLPQGEGRIALEGLSAPVEVVRDGKGVVRIRAATLKDLFFAQGFVHAQERLWQMEFQRRVGQGRLSEILGEATLPQDRFLRTWGFYRAARAAYGKLYPEEKEAVDAYAAGVNAFLASGAPLPPEFRLLGFRPEPWTGPDVLVWAKMMSYDLSGNWEEELKRHRLLARGVSPKRLLELKPPYPEDAPTVLRAEDLKLPLKREEAPSALLRSNNWVVAGSRTETGKPFLANDPHLALQAPSLWFLMALEAPGLRAIGATLPGLPGVVIGRNERIAWGVTNVGADVEDLYLLEEVEGRGYRYKGRVVPYGVREEVIRVKGGREEVLKVRETVYGPVITDALEDPPKTPMALRWVSLDEEDHILMAFLGVNRAGNWEEFKKALLPYSAPSQNFVYADVEGNIGYIAPGKFPVRKEGHTGMVPVPGNGEWDWLGYRRPEEWPQAFNPARGYLVTANHKVTPKGFPYALTYDWAEPYRAERIEELLLAKEKLSLEDMKAIQQDQKSLLYRDFRPVLELLTPLSEGARAWRDRLLAWDGTMAPGSEEALVFALWYTELTRLPQREVGEAYWDEPRYLLKALKEGDKNCDQPETEYRESCLDYAALALERALDRKEALGARAWGEVHRARFPHAVLTHTPLKRLSDREVAFGGDRYTVNVGPFDPETLAMGHGPSYRQIVDLSDMEGSLFVHPMGQSGHFLSRHYADLLPLWQRGDYLPMRFGAPLGRTLLLEPLPSP
notes: One gene: precursor without its first 32 residues (membrane anchor), 2223 bp insert in pET28a, His6-tag (20 aa) at N-terminus of alpha subunit kept

Legend:
Experiment in all cases: initial rates of hydrolysis, fluorescamine detection of primary amine product
TthPAC = biological target: T1, TthPAC (Thermus thermophilus, UniProt Q72G76, DEL247-255); format: biochemical; conditions: 20 mM MES pH 5.5, 65 °C; kcat unit taken from kcat/Km in mM^-1.seg^-1
T1 construct: gene TT_C1972; One gene: precursor without its first 32 residues (membrane anchor), 2223 bp insert in pET28a, His6-tag (20 aa) at N-terminus of alpha subunit kept
Description: (§1) initial rates of hydrolysis, fluorescamine detection of primary amine product on TthPAC

[1] = substrate: CC/C=C/CC(=O)N[C@@H]1C(=O)N2[C@@H]1SC(C)(C)[C@@H]2C(=O)O; format: biochemical, Thermus thermophilus; conditions: 20 mM MES pH 5.5, 65 °C, kcat unit taken from kcat/Km in mM^-1.seg^-1
Description: as §1

[2] = substrate: CC1(C)S[C@@H]2[C@H](NC(=O)COc3ccccc3)C(=O)N2[C@H]1C(=O)O; format: biochemical, Thermus thermophilus; conditions: 20 mM MES pH 5.5, 65 °C, kcat unit taken from kcat/Km in mM^-1.seg^-1
Description: as §1

[3] = substrate: CCCCCC(=O)N[C@@H]1C(=O)N2[C@@H]1SC(C)(C)[C@@H]2C(=O)O; format: biochemical, Thermus thermophilus; conditions: 20 mM MES pH 5.5, 65 °C, kcat unit taken from kcat/Km in mM^-1.seg^-1
Description: as §1

[4] = substrate: CCCCCCCC(=O)N[C@@H]1C(=O)N2[C@@H]1SC(C)(C)[C@@H]2C(=O)O; format: biochemical, Thermus thermophilus; conditions: 20 mM MES pH 5.5, 65 °C, kcat unit taken from kcat/Km in mM^-1.seg^-1
Description: as §1

Molecule | K m (mM) (TthPAC) | Km [1] [mM] | kcat [1] [s⁻¹] | kcat/Km [1] [M⁻¹ s⁻¹] | Km [2] [mM] | kcat [2] [s⁻¹] | kcat/Km [2] [M⁻¹ s⁻¹] | Km [3] [mM] | kcat [3] [s⁻¹] | kcat/Km [3] [M⁻¹ s⁻¹] | Km [4] [mM] | kcat [4] [s⁻¹] | kcat/Km [4] [M⁻¹ s⁻¹]
CC1(C)S[C@@H]2[C@H](NC(=O)Cc3ccccc3)C(=O)N2[C@H]1C(=O)O [Penicillin G] | ~ Approx. 2.90 mM |  |  |  |  |  |  |  |  |  |  |  | 
B1 |  | 0.94 ± 0.18 | 0.90 ± 0.03 | 960 | 0.74 ± 0.11 | 0.57 ± 0.01 | 770 | 0.98 ± 0.22 | 1.46 ± 0.06 | 1490 | 0.32 ± 0.05 | 5.16 ± 0.13 | 16100
